Test results: PMC8112169 (Molecules and Cells, 2021)

B1: coiled-coil domain of Num1 (residues 97-294) (domain or fragment, Saccharomyces cerevisiae, UniProt Q00402 97-294, looked up)
chain: MNFTLELSENLLVECRKLQSSNEAKNEQIKSLKQIKESLSDKIEELTNQKKSFMKELDSTKDLNWDLESKLTNLSMECRQLKELKKKTEKSWNDEKESLKLLKTDLEILTLTKNGMENDLSSQKLHYDKEISELKERILDLNNENDRLLISVSDLTSEINSLQSNRTERIKIQKQLDDAKASISSLKRKVQKKYYQKQ
B2: Num1 (97-195), N-terminal half of Num1CC (domain or fragment, Saccharomyces cerevisiae, UniProt Q00402 97-195, looked up)
chain: MNFTLELSENLLVECRKLQSSNEAKNEQIKSLKQIKESLSDKIEELTNQKKSFMKELDSTKDLNWDLESKLTNLSMECRQLKELKKKTEKSWNDEKESL
B3: full-length Mdm36 (residues 1-579) (natural protein, Saccharomyces cerevisiae, UniProt Q06820 1-579, looked up)
chain: MDENGTVKPGYELKGLNSGNSRSNMDKDPIVSKFHRAGLNDSADEEDTDINGNRNTSWITSMISEEKRKVEGKSMLNDEEDLHLSKATLNKCDALVKILADIIKLEFVIHQSWYIRSLHKSVLIQFEVETSGGNKNSAGDSGDDDDDNHNGNLDDSFYKDLSLKCIKKCEKSSLALESLSRDIDQIRDFIMSNTIEDNRVDRLLQNSMTLLLECWIYSMKRLRRLRMKIAGIFVRSKLLLIDHELVTIWHFLQEQNEHETVNNENELKLAETIKSYRAFIKIFIQQLEDSESGSPSSSLFEECLHVFLDIESMYNSLNLNWLLNENKALQERLLSPSSTSENDHTNNLPVIDETKEIEDISSFVNSIVDASMLTHDLTPINSSDSDNLSNGEIDRLDGRRLSSSTSDMSLMMQRTSLQKQLPSLLTAFNNARRLEQELQNACKVNDNKHSTKDTDSNIRRNEHAMSSSVSSIISQNSTLASPSPPMSSSFISTAPSQSSSRMSTLPLSPSSSLLESQSQTLKNNMSQWLNQSRSGLNGTKLIPTNHIGFHSNVLNTLYGIGGGPVSKSYKSNQPSSQNT
B4: Num1 (97-175) (domain or fragment, Saccharomyces cerevisiae, UniProt Q00402 97-175, looked up)
chain: MNFTLELSENLLVECRKLQSSNEAKNEQIKSLKQIKESLSDKIEELTNQKKSFMKELDSTKDLNWDLESKLTNLSMECR

What was measured:
SEC-MALS = target: the molecule itself; assay: SEC-MALS
[1] = target: B3; assay: ITC
[2] = target: B3; assay: SEC

Question: Which “stoichiometry N” value (SEC-MALS) does the source give for B1 here?
Answer: Its value is 2.

Question: And the Kd [1]?
Answer: Its Kd is 0.121 µM.

Question: What about the “stoichiometry N” value [1] of the same binder?
Answer: The value was 1 Num1CC per Mdm36 (1:1).

Question: Does B2 bind [2]?
Answer: Result: binds

Question: Which “stoichiometry N” value (SEC-MALS) does the source give for B3 here?
Answer: Its value is 2.

Question: Does B4 bind [2]?
Answer: Result: binds
